Reference: patent publication US8110660B2, “Soluble ENPP4 protein” (Ono Pharmaceutical Co., Ltd., priority 2004, dated 2012)

Tests used:
Format in all cases: biochemical
[1] = NPP/PDE activity of soluble type ENPP proteins (pNP-TMP degradation, 405 nm); settings: 1 mM pNP-TMP, pH 9.6, 37° C., 2 hours, absorption at 405 nm
Description: 400 mL of the culture supernatant of the cells expressing the soluble type human ENPP4 protein was concentrated at 8 times by using Amicon Ultra-15 (fraction molecular weight 10,000, manufactured by Millipore Inc.). The His-Tag-added protein was affinity-purified by using AKTAexplorer 10S (manufactured by Amersham Biosciences Inc.) and His-Trap column (manufactured by Amersham Biosciences Inc.). Samples in the respective purification steps were subjected to SDS-PAGE according to a predetermined method and then the protein was stained by using Simply-Blue-Stain (manufactured by Invitrogen Inc.). […] 40 μL of each of the respective purification steps and purified soluble type human ENPP4-FLAG-His proteins was mixed with 50 μL of assay buffer (20 mM HEPES, 140 mM NaCl, 5 mM KCl, 1 mM CaCl2, 1 mM MgCl2, 10 mM Glucose, pH 9.6, the method of Voltmeter P. et al., Eur. J. Biochem. 270 (2003) 2971-78 was improved) and 10 μL of 10 mM p-nitrophenyl-Thymidine monophosphate (pNP-TMP, Sigma Inc.), and the mixture was kept at 37° C. for 2 hours and then, absorption of light of 405 nm was measured and thereby, p-nitorphenol, which was a degradation product, was measured and, whether the Nucleotide Pyrophosphatase (NPP)/Phospho-Diesterase (PDE) activity existed or not was examined. […]

[2] = PDE/PME activity of soluble type ENPP proteins (pNP-PP or bis-pNPP degradation); settings: 0.2 μg protein, 1 mM pNP-PP (ENPP6 also bis-pNPP), pH 9.6, 37° C., 90 min, FIG. 8
Description: (§1) 0.2 μg of the purified soluble type ENPP4 protein was mixed in 90 μL of assay buffer (20 mM HEPES, 140 mM NaCl, 5 mM KCl, 1 mM CaCl2, 1 mM MgCl2, 10 mM Glucose, pH 9.6) and 10 μL of 10 mM p-nitrophenyl phenylphosphonate (pNP-PP, manufactured by Sigma Inc.), and was kept at 37° C. for 90 min and then, absorption of light of 405 nm was measured and thereby, the amount of P-nitrophenol was quantitatively determined and, whether the PDE/PME activity existed or not was examined.
as §1, with “ENPP5” for “ENPP4”, “pNP-PP,” for “p-nitrophenyl phenylphosphonate (pNP-PP, manufactured by Sigma Inc.),”, “p-nitrophenol” for “P-nitrophenol”
as §1, with “ENPP6” for “ENPP4”, “pNP-PP or bis-(p-nitrophenyl)phosphate (bis-pNPP),” for “p-nitrophenyl phenylphosphonate (pNP-PP, manufactured by Sigma Inc.),”, “p-nitrophenol” for “P-nitrophenol”

[3] = Bivalent cation requirement of soluble type ENPP proteins (PDE/PME activity); settings: MgCl2 and CaCl2 1 mM vs no additive vs EDTA 1 mM, pNP-PP, FIG. 9
Description: (§2) 0.2 μg of the purified soluble type ENPP4 protein was mixed in 90 μL of assay buffer (20 mM HEPES, 140 mM NaCl, 5 mM KCl, 10 mM Glucose, pH 9.6), 10 μL of 10 mM pNP-PP, and (1) 1 mM final concentration of MgCl2 and CaCl2, (2) no additive, or (3) 1 mM final concentration of EDTA, and then was kept at 37° C. for 90 min and then, absorption of light of 405 nm was measured and thereby, the increase or decrease of the PDE/PME activity by removing bivalent cations was examined.
as §2, with “ENPP5” for “ENPP4”, “examined. […] It has been thought that a certain cation except for calcium and magnesium ions is bonded to the purified soluble type ENPP5 protein because the activity decreases in the EDTA-adding sample and increases in the no-additive sample. […]” for “examined.”

B1: soluble type ENPP4 protein: extracellular region of human ENPP4 with FLAG tag and 6×His tag at the C terminal, expressed in HEK293T cells, purified (protein, UniProt Q9Y6X5 16-407, looked up)
extracellular domain: FRSDSSSSLPPKLLLVSFDGFRADYLKNYEFPHLQNFIKEGVLVEHVKNVFITKTFPNHYSIVTGLYEESHGIVANSMYDAVTKKHFSDSNDKDPFWWNEAVPIWVTNQLQENRSSAAAMWPGTDVPIHDTISSYFMNYNSSVSFEERLNNITMWLNNSNPPVTFATLYWEEPDASGHKYGPEDKENMSRVLKKIDDLIGDLVQRLKMLGLWENLNVIITSDHGMTQCSQDRLINLDSCIDHSYYTLIDLSPVAAILPKINRTEVYNKLKNCSPHMNVYLKEDIPNRFYYQHNDRIQPIILVADEGWTIVLNESSQKLGDHGYDNSLPSMHPFLAAHGPAFHKGYKHSTINIVDIYPMMCHILGLKPHPNNGTFGHTKCLLVDQWCINLPEA
modifications: extracellular domain C-terminal FLAG and 6xHis tags
notes: extracellular region of human ENPP4 with FLAG tag and 6×His tag at the C terminal, expressed in HEK293T cells, purified
NPP/PDE activity [1]: NPP/PDE activity was detected | PDE/PME activity [2]: has the PDE/PME activity | bivalent cation requirement [3]: does not require bivalent cations
